Test results reported in PMC10955726, “DNA‐dependent phase separation by human SSB2 (NABP1/OBFC2A) protein points to adaptations to eukaryotic genome repair processes”.

How the values were obtained:
[1] = biological target: T1, hSSB2 (C-terminally His-tagged) (Homo sapiens, UniProt Q96AH0 1-204); assay: fluorescence anisotropy; no MgCl2; Hill n 1.1; Anisotropy: standard LLPS buffer without MgCl2 (50 mM KCl standard), 25 C, 10 nM probe; EMSA: standard LLPS buffer (50 mM KCl, 10 mM MgCl2), 50 nM probe, 1% agarose; buffer species and pH not in the material; settings: protein: recombinant; tags: C-terminal His; label: 3'-fluorescein; single strand
T1 sequence (Q96AH0 whole entry): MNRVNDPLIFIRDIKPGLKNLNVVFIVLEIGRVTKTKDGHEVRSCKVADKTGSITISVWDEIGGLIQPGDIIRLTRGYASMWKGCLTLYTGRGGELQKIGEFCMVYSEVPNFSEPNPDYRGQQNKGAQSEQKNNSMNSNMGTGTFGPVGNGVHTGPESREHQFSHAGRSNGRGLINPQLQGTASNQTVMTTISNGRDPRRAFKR

hSSB2-dIDR = hSSB2-dIDR (Homo sapiens, UniProt Q96AH0 1-100); assay: fluorescence anisotropy; no MgCl2; Hill n 2.4; Anisotropy: standard LLPS buffer without MgCl2 (50 mM KCl standard), 25 C, 10 nM probe; EMSA: standard LLPS buffer (50 mM KCl, 10 mM MgCl2), 50 nM probe, 1% agarose; buffer species and pH not in the material; settings: protein: recombinant; tags: His (terminus not clearly stated); label: 3'-fluorescein; single strand
Chain of hSSB2-dIDR (Q96AH0 1-100): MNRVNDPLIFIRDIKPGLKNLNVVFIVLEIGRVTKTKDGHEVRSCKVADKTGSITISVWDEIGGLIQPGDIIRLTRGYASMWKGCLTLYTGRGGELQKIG

[2] = biological target: T1, hSSB2 (C-terminally His-tagged); assay: fluorescence anisotropy; no MgCl2; Hill n 3.3; Anisotropy: standard LLPS buffer without MgCl2 (50 mM KCl standard), 25 C, 10 nM probe; EMSA: standard LLPS buffer (50 mM KCl, 10 mM MgCl2), 50 nM probe, 1% agarose; buffer species and pH not in the material; settings: protein: recombinant; tags: C-terminal His; label: 3'-fluorescein; single strand
[3] = biological target: T1, hSSB2 (C-terminally His-tagged); assay: fluorescence anisotropy; no MgCl2; Hill n 2.7; Anisotropy: standard LLPS buffer without MgCl2 (50 mM KCl standard), 25 C, 10 nM probe; EMSA: standard LLPS buffer (50 mM KCl, 10 mM MgCl2), 50 nM probe, 1% agarose; buffer species and pH not in the material; settings: protein: recombinant; tags: C-terminal His; label: 3'-fluorescein; single strand

B1: ss54 DNA (ssDNA)
DNA: TCCTTTTGATAAGAGGTCATTTTTGCGGATGGCTTAGAGCTTAATTGCGCAACG
Kd [1]: 87 ± 7 nM
Kd (hSSB2-dIDR): 850 ± 20 nM

B2: ss36 RNA (ssRNA)
RNA: AUUUUUGCGGAUGGCUUAGAGCUUAAUUGCGCAACG
Kd [2]: 870 ± 170 nM

B3: ss36 DNA (ssDNA)
DNA: ATTTTTGCGGATGGCTTAGAGCTTAATTGCGCAACG
Kd [3]: 530 ± 20 nM
